In patent publication US10463752B2, “Protein polymer gold nanoparticle hybrid materials for small molecule delivery” (New York University, priority 2016, dated 2019):
“And” between values parts separate entries of the source, which are not always exact repeats. Equal entries are not always repeated. Marks after values point to notes of the source that are not given here.

B1: E1C-His6: protein diblock polymer with N-terminal hexahistidine tag, elastin-like E1 domain then COMPcc coiled-coil C domain (SEQ ID NO: 14) (protein)
chain: MRGSHHHHHHGSKPIAASAVPGVGVPGVGVPGFGVPGVGVPGVGVPLEGSELAATATATATATATAACGDLAPQMLRELQETNAALQDVRELLRQQVKEITFLKNTVMESDASGLQAATATATATATATAVDLQPS
B2: CE1-His6: protein diblock polymer with N-terminal hexahistidine tag, COMPcc coiled-coil C domain then elastin-like E1 domain (SEQ ID NO: 13) (protein)
chain: MRGSHHHHHHGSACELAATATATATATATAACGDLAPQMLRELQETNAALQDVRELLRQQVKEITFLKNTVMESDASGLQAATATATATATATAVDKPIAASAVPGVGVPGVGVPGFGVPGVGVPGVGVPLEGSGTGAKLN

What was measured:
[1] = tested on: MCF7 human breast cancer cells; assay: MTS cell viability assay; settings: absorbance at 490 nm
Procedure: (§1) Cell viability measurements were carried out using a CellTiter 96® Aqueous One solution kit (Promega) in a 96-well plate, seeded 1×10^4 cells/well. After 24 hours, the cells were treated for 4 hours or 24 hours with protein polymers and P•G NPs with and without curcumin along with control treatments of curcumin alone and media alone. After the treatment periods, 20 μL [3-(4,5-dimethylthiazol-2-yl)-5-(3-carboxymethoxyphenyl)-2-(4-sulfophenyl)-2H-tetrazolium (MTS) was added to each well, followed by incubation at 37° C. for 3 hours. The plate was centrifuged for 3 minutes at 2500 rpm and then subjected to absorbance measurements at 490 nm (Tables 3 and 4).

[2] = tested on: MCF7 human breast cancer cells; assay: Curcumin uptake in MCF7 cells by fluorescence microscopy; assay type: cell-based; settings: complexed with curcumin
Procedure: MCF7 human breast cancer cells were obtained from ATCC and maintained at 37° C., 5% CO2 as monolayer cultures in Dulbecco's modified Eagle's medium (DMEM with high glucose containing phenol red) supplemented with 10% (v/v) fetal bovine serum (FBS), gentamicin (50 μg/mL), 100 U penicillin/100 μg/mL streptomycin. Because the loading capacities of curcumin for P•GNP nanocomposites are much larger than those of the proteins in the absence of GNP we prepared two corresponding curcumin controls that represented the bound curcumin levels in P•G NPs and protein polymers alone (Table 2). To avoid any uptake of unbound curcumin by the cells directly, we limited the curcumin amount that is equivalent to the loading capacity of 26 μM of protein samples in 50 mM sodium phosphate buffer, pH 7.4 and allowed to bind for 2 hours at room temperature prior to cell culture studies.
Multiple sets of experiments were performed to record curcumin uptake by image acquisition using FITC filter (Em: 520 nm) under fluorescence microscopy and direct measurement of curcumin uptake in cell extractions. Cells were grown directly on 24-well culture plates (8×10^4 cells/well) for cell extraction or on cover slips for microscopy. After 24 hours of cell plating, cells were treated for 4 or 24 hours with different combination of proteins with or without GNP and/or curcumin. For all the treatments, the total volume of samples with DMEM in 24-well plates was kept constant at 300 μL with proteins prepared at 10 μM concentrations. The ratio of sample amount to number of cells was also kept constant. The results are representative of two such independent sets of experiments.
For fluorescent imaging of curcumin uptake, cells on coverslips were fixed with 300 μL 4% paraformaldehyde solution in DPBS for 20 minutes at room temperature on a plate rocker. […] Cells were viewed using fluorescence microscope IX71 (Olympus) using DAPI (for cell nuclei) and FITC (for curcumin uptake) at 60× magnification while keeping the exposure time for the FITC images constant at 200 milliseconds.

[3] = tested on: MCF7 human breast cancer cells
Procedure: as §1

[4] = Curcumin release over time; assay type: physicochemical; settings: by 8.25 hrs, room temperature, 50 mM phosphate buffer pH 7.4
Procedure: Release of curcumin from CE1-His6, E1C-His6, CE1-His6•GNP and E1C-His6•GNP was then investigated. Curcumin (26 nmol) was added to 200 μL of 26 μM (5.2 nmol) protein sample. After 2 hours of incubation at room temperature, the solution was adjusted to contain a final concentration of 0.5 M NaCl. The protein polymer•curcumin complex (in the presence or absence of GNP) were incubated at 45° C. (well above the TO for 30 min and centrifuged to separate protein polymer•curcumin complex from excess curcumin. The pellets were resuspended in 200 μL of 50 mM phosphate buffer, pH 7.4 and kept at room temperature in the dark for release. After 10 min, the suspensions were centrifuged and the supernatant was removed and used for extraction assessment of released curcumin. This resuspension-incubation-spin-release cycle was repeated for the next eight hours at the following time points: 10, 25, 55, 85, 135, 195, 255, 315 and 495 min. Release study was performed on two different protein sample preparations to obtain the averaged release profile. Error bars on the release data represented standard error of the two sample preparations.

[5] = Turbidometry, inverse temperature transition (Tt); assay type: physicochemical; settings: midpoint of turbidity at 800 nm
Procedure: The turbidometry, or inverse temperature transition (Tt), was determined via UV-Vis Spectrophotometer Cary-50 (Agilent Technology) equipped with TC 125 temperature controller (Quantum Northwest) in Type 21 quartz cuvette with 10 mm path length (Buck Science) by monitoring the change in turbidity at 800 nm from 25° C. to 80° C. at a rate of 1° C./min. Protein stock solutions for Tt measurement were prepared in 0.2 mg/mL (or 14.3 μM and 14.4 μM for CE1-His6 and E1C-His6, respectively) in 10 mM sodium phosphate buffer, pH 8.0. In order to bring Tt value of all the samples into instrument operation range, highly concentrated NaCl solution was added prior to Tt measurement (Table 1). Measurements were performed on at least two different protein sample preps to calculate the average Tt. The Tt was determined at the midpoint of the normalized turbidity.

[6] = protein polymer without GNP; data from Haghpanah et al., Mol. Biosys. 2010; cited from earlier work
[7] = Curcumin loading capacity (small molecule loading); assay type: physicochemical; settings: ratio of curcumin to protein or P•G NP; 2 hours incubation at room temperature
Procedure: Curcumin (6.5 nmol final concentration from 3 mM stock solution in HPLC grade methanol) was incubated with 1.3 nmol of CE1-His6, E1C-His6, CE1-His6•GNP and E1C-His6•GNP at room temperature for 2 hours and loaded onto Bio-Rad Spin6 columns packed with Sephadex G-25 medium beads 0.5 cm high. Bound protein polymer•curcumin complexes (in the presence or absence of GNP) were eluted by size, washed 3 times in 50 μL sodium phosphate buffer, followed by centrifugation for 5 min at 14000 rpm. The beads containing unbound curcumin were collected separately and resuspended back to buffer for solvent extraction. Both bound and unbound curcumin were extracted by adding 150 μL ethyl acetate and quantitatively determined by measuring absorbance at 416 nm. Absorbance was measured in a Hellma 105.201-QS type cuvette (10 mm light path, 100 μL sample) on SpectraMax M2. This binding study was performed on at least three different protein sample preparations to calculate the average loading capacities with errors represented as the standard deviation of the three trials.

Molecule	Abs. (MTS Assay) ([1]; 4 Hour Treatment, listed as CCM1)	Abs. (MTS Assay) ([1]; 4 Hour Treatment, listed as CCM2)	Abs. (MTS Assay) ([1]; 24 Hour Treatment, listed as CCM1)	Abs. (MTS Assay) ([1]; 24 Hour Treatment, listed as CCM2)	curcumin uptake visualized by fluorescence (FITC channel) [2]	cytotoxicity (MTS assays) [3]	release of free curcumin [4]	Tt ([5]; 0.1818 mg/mL protein, 0.45M NaCl)	Size of protein particles [6]	CCM/P molar binding ratio [7]	Tt ([5]; 0.1621 mg/mL protein, 0.946M NaCl)
COc1cc(/C=C/C(=O)CC(=O)/C=C/c2ccc(O)c(OC)c2)ccc1O [curcumin]	2.039 ± 0.00 and 1.999 ± 0.05	2.044 ± 0.01 and 2.025 ± 0.02	1.974 ± 0.01 and 2.034 ± 0.02	1.98 ± 0.04 and 1.999 ± 0.01	did not show any uptake	–	–	–	–	–	–
B1	–	–	–	–	uptake albeit substantially less than the P•G NPs	neither the protein polymer nor P•G NPs s exhibited cytotoxicity	78.8%	33.8 ± 2.2 °C	27.9 ± 3.7^a nm	0.41 ± 0.10	–
B2	–	–	–	–	uptake albeit substantially less than the P•G NPs	neither the protein polymer nor P•G NPs s exhibited cytotoxicity	77.0%	–	26.0 ± 3.0^a nm	0.40 ± 0.06	55.0 ± 0.8 °C
